Laboratory results reported in patent publication US20230250135A1.

How the values were obtained:
Settings in all cases: remark: other sources report otherwise
[1] = molecular target: UFV161453 (influenza A virus A/Hong Kong/1/68 (H3N2))
[2] = molecular target: UFV161721 (influenza A virus A/Hong Kong/1/68 (H3N2)); test: Binding-AlphaLISA, Expi293F supernatant, normalized to UFV161333
[3] = molecular target: UFV161715 (influenza A virus A/Hong Kong/1/68 (H3N2)); test: as above
[4] = molecular target: UFV161333 (influenza A virus A/Hong Kong/1/68 (H3N2)); test: Binding-AlphaLISA, Expi293F supernatant, normalized to UFV161686

B1: CR9114 (antibody, V domains shown)
VH: QVQLVQSGAEVKKPGSSVKVSCKSSGGTSNNYAISWVRQAPGQGLDWMGGISPIFGSTAYAQKFQGRVTISADIFSNTAYMELNSLTSEDTAVYFCARHGNYYYYSGMDVWGQGTTVTVSS
VL: SYVLTQPPAVSGTPGQRVTISCSGSDSNIGRRSVNWYQQFPGTAPKLLIYSNDQRPSVVPDRFSGSKSGTSASLAISGLQSEDEAEYYCAAWDDSLKGAVFGGGTQLTVL
binding relative to reference UFV161454 [1]: 61% | binding relative to reference UFV161333 [2]: 145% | binding relative to reference UFV161333 [3]: 145% | fold increase in binding relative to reference UFV161686 [4]: 5 fold
